Read-outs that look alike come from different tables or passages of the source.
How the values were obtained:
[1] = biological target: T1, Recombinant human Avi_PCSK9_Flag_His (human, UniProt Q8NBP7 31-692, biotinylated in the HTRF and LDL-R competition assays); experiment: HTRF epitope competition: unlabelled compound titrated against a DyLight 650-labelled anti-PCSK9 antibody for biotinylated human PCSK9; % specific binding [panel A]
T1 construct: In-house protein; also called human PCSK9; huPCSK9

[2] = biological target: T1, Recombinant human Avi_PCSK9_Flag_His; experiment: binding ELISA: human PCSK9 coated at 10 ug/mL, compound at 100 ug/mL, detection with cryptate-labelled Fc-specific anti-human IgG; fluorescence counts
[3] = biological target: T2, recombinant human B7-H1 (in house) (human, UniProt Q9NZQ7 19-238, limits assumed); experiment: binding ELISA on coated human B7-H1 (5 ug/mL), compound at 10 ug/mL, detection with cryptate labelled Fc specific anti human IgG
[4] = biological target: T2, recombinant human B7-H1 (in house); experiment: binding ELISA on coated human B7-H1 (5 ug/mL), compound at 10 ug/mL, detection with cryptate labelled Fc specific anti human IgG; positive control
[5] = biological target: T1, Recombinant human Avi_PCSK9_Flag_His; experiment: HTRF epitope competition: unlabelled compound titrated against a DyLight 650-labelled anti-PCSK9 antibody for biotinylated human PCSK9; % specific binding [panel F]
[6] = biological target: T1, Recombinant human Avi_PCSK9_Flag_His; experiment: HTRF epitope competition: unlabelled compound titrated against a DyLight 650-labelled anti-PCSK9 antibody for biotinylated human PCSK9; % specific binding [panel E]
[7] = biological target: T1, Recombinant human Avi_PCSK9_Flag_His; experiment: binding ELISA on coated human PCSK9 (10 ug/mL), compound at 100 ug/mL, detection with cryptate labelled Fc specific anti human IgG
[8] = biological target: T1, Recombinant human Avi_PCSK9_Flag_His; experiment: HTRF epitope competition: unlabelled compound titrated against a DyLight 650-labelled anti-PCSK9 antibody for biotinylated human PCSK9; % specific binding [panel A]; remark: listed apart in the source
[9] = biological target: T1, Recombinant human Avi_PCSK9_Flag_His; experiment: HTRF epitope competition: unlabelled compound titrated against a DyLight 650-labelled anti-PCSK9 antibody for biotinylated human PCSK9; % specific binding [panel E]; remark: listed apart in the source
[10] = biological target: T1, Recombinant human Avi_PCSK9_Flag_His; experiment: HTRF epitope competition: unlabelled compound titrated against a DyLight 650-labelled anti-PCSK9 antibody for biotinylated human PCSK9; % specific binding
[11] = biological target: T1, Recombinant human Avi_PCSK9_Flag_His; experiment: HTRF epitope competition: unlabelled compound titrated against a DyLight 650-labelled anti-PCSK9 antibody for biotinylated human PCSK9; % specific binding [panel F]; remark: listed apart in the source
[12] = biological target: T1, Recombinant human Avi_PCSK9_Flag_His
[13] = biological target: T1, Recombinant human Avi_PCSK9_Flag_His; experiment: HTRF epitope competition: unlabelled compound titrated against a DyLight 650-labelled anti-PCSK9 antibody for biotinylated human PCSK9; % specific binding [panel C]

T2 sequence (Q9NZQ7 19-238 limits assumed): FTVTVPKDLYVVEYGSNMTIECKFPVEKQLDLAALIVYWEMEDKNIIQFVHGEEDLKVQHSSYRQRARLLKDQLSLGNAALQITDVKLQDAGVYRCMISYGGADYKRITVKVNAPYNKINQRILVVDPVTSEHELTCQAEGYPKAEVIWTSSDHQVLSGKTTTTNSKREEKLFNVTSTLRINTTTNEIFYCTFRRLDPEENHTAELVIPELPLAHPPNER

B1: PC9#1 GLP-1 analogue light chain fusion (antibody, IgG1)
VH: QVQLVQSGAEVKKPGASVKVSCKASGYTFTSYYMHWVRQAPGQGLEWMGEISPFGGRTNYNEKFKSRVTMTRDTSTSTVYMELSSLRSEDTAVYYCARERPLYASDLWGQGTTVTVSS
VL: HGEGTFTSDVSSYLEEQAAKEFIAWLVKGGGGGGGSGGGGSGGGGSADIQMTQSPSSLSASVGDRVTITCRASQGISSALAWYQQKPGKAPKLLIYSASYRYTGVPSRFSGSGSGTDFTFTISSLQPEDIATYYCQQRYSLWRTFGQGTKLEIK
notes: IgG1-TM; peptide-linker at the N-terminus of VL; descriptive name; also called light chain peptide antibody fusion of PC9#1
With B1 the “IC50 (read off the curve)” value [1] was ~100 pM.

B2: HS9_DSB7_V19A_L2 (antibody, IgG1)
VH: QVQLVQSGAEVKKPGASVKVSCKASGYTFTSYYMHWVRQAPGQGLEWMGEISPSGGSTSYNQKFQGRVTMTRDTSTSTVYMELSSLRSEDTAVYYCARERPLYASDLWGQGTTVTVSS
light: not shown
B2: binds [2].

B3: HS9_DSB7_V19A_L0 (antibody, IgG1)
VH: QVQLVQSGAEVKKPGASVKVSCKASGYTFTSYYMHWVRQAPGQGLEWMGEISPSGGSTSYNQKFQGRVTMTRDTSTSTVYMELSSLRSEDTAVYYCARERPLYASDLWGQGTTVTVSS
light: not shown
notes: VH see m27; IgG1-TM
B3: binds [2].

B4: HS9_DSB7_V19A_L1 (antibody, IgG1)
VH: QVQLVQSGAEVKKPGASVKVSCKASGYTFTSYYMHWVRQAPGQGLEWMGEISPSGGSTSYNQKFQGRVTMTRDTSTSTVYMELSSLRSEDTAVYYCARERPLYASDLWGQGTTVTVSS
light: not shown
notes: VH see m27; IgG1-TM
B4: binds [2].

B5: Fusion 2.7A4 DSB7 V19A (antibody)
VH: EVQLVESGGGLVKPGGSLRLSCAASGFTFSTYSMNWVRQAPGKGLEWVSSISSSGDYIYYADSVKGRFTISRDNAKNSLYLQMNSLRAEDTAVYYCARDLVTSMVAFDYWGQGTLVTVSS
VL: HGEGTFTSDLSKQMEEECARLFIEWLKNGGPSSGAPPPGCGGGGGSGGGGSGGGGSASYELTQPPSVSVSPGQTARITCSGDALPQKYVFWYQQKSGQAPVLVIYEDSKRPSGIPERFSGSSSGTMATLTISGAQVEDEADYYCYSTDRSGNHRVFGGGTKLTVL
notes: Peptide-linker on the light chain of the anti-B7-H1 antibody
B5: binds [3].

B6: anti-B7-H1 antibody 2.7A4 (antibody, V domains shown)
VH: EVQLVESGGGLVKPGGSLRLSCAASGFTFSTYSMNWVRQAPGKGLEWVSSISSSGDYIYYADSVKGRFTISRDNAKNSLYLQMNSLRAEDTAVYYCARDLVTSMVAFDYWGQGTLVTVSS
VL: SYELTQPPSVSVSPGQTARITCSGDALPQKYVFWYQQKSGQAPVLVIYEDSKRPSGIPERFSGSSSGTMATLTISGAQVEDEADYYCYSTDRSGNHRVFGGGTKLTVL
B6: binds [4].

B7: PC9#6 GLP-1 analogue heavy chain fusion (antibody, IgG1)
VH: HGEGTFTSDVSSYLEEQAAKEFIAWLVKGGGGGGGSGGGGSGGGGSAQVQLVQSGAEVKKPGSSVKVSCKASGGTFNSHAISWVRQAPGQGLEWMGGINPILGIANYAQKFQGRVTITADESTSTAYMELSSLRSEDTAVYYCARHYEIQIGRYGMNVYYLMYRFASWGQGTLVTVSS
VL: DIQMTQSPSSLSASVGDRVTITCRASQGIRSALNWYQQKPGKAPKLLIYNGSTLQSGVPSRFSGSGSGTDFTLTISSLQPEDFAVYYCQQFDGDPTFGQGTKVEIK
notes: IgG1-TM; descriptive name; also called heavy chain peptide antibody fusion of PC9#6
In the case of B7, the “IC50 (read off the curve)” value [5] is reported as ~600 pM.

B8: PC9#5 GLP-1 analogue light chain fusion (antibody, IgG1, V domains shown)
VH: EMQLVESGGGLVQPGGSLRLSCAASGFTFSSHWMKWVRQAPGKGLEWVANINQDGSEKYYVDSVKGRFTISRDNAKNSLFLQMNSLRAEDTAVYYCARDIVLMVYDMDYYYYGMDVWGQGTTVTVSS
VL: not shown
notes: IgG1-TM; descriptive name; also called light chain peptide antibody fusion of PC9#5
In the case of B8, the “IC50 (read off the curve)” value [6] is reported as ~6 nM.

B9: PC9#5_DSB7_V19A (antibody, IgG1, V domains shown)
VH: EMQLVESGGGLVQPGGSLRLSCAASGFTFSSHWMKWVRQAPGKGLEWVANINQDGSEKYYVDSVKGRFTISRDNAKNSLFLQMNSLRAEDTAVYYCARDIVLMVYDMDYYYYGMDVWGQGTTVTVSS
VL: not shown
notes: IgG1-TM
B9: binds [7].

B10: PC9#1 GLP-1 analogue heavy chain fusion (antibody, IgG1)
VH: HGEGTFTSDVSSYLEEQAAKEFIAWLVKGGGGGGGSGGGGSGGGGSAQVQLVQSGAEVKKPGASVKVSCKASGYTFTSYYMHWVRQAPGQGLEWMGEISPFGGRTNYNEKFKSRVTMTRDTSTSTVYMELSSLRSEDTAVYYCARERPLYASDLWGQGTTVTVSS
VL: DIQMTQSPSSLSASVGDRVTITCRASQGISSALAWYQQKPGKAPKLLIYSASYRYTGVPSRFSGSGSGTDFTFTISSLQPEDIATYYCQQRYSLWRTFGQGTKLEIK
notes: IgG1-TM; peptide-linker at the N-terminus of VH; also called heavy chain peptide antibody fusion of PC9#1
In the case of B10, the “IC50 (read off the curve)” value [8] is reported as ~60 pM.

B11: PC9#5 GLP-1 analogue heavy chain fusion (antibody, IgG1)
VH: HGEGTFTSDVSSYLEEQAAKEFIAWLVKGGGGGGGSGGGGSGGGGSAEMQLVESGGGLVQPGGSLRLSCAASGFTFSSHWMKWVRQAPGKGLEWVANINQDGSEKYYVDSVKGRFTISRDNAKNSLFLQMNSLRAEDTAVYYCARDIVLMVYDMDYYYYGMDVWGQGTTVTVSS
VL: not shown
notes: IgG1-TM; descriptive name; also called heavy chain peptide antibody fusion of PC9#5
B11 was tested, and the “IC50 (read off the curve)” value [9] was ~100 pM.

B12: PC9#7 GLP-1 analogue heavy chain fusion (antibody, IgG1)
VH: HGEGTFTSDVSSYLEEQAAKEFIAWLVKGGGGGGGSGGGGSGGGGSAQVQLVQSGAEVKKPGESLKISCKGSGYSFTNYWISWVRQMPGKGLEWMGIIYPGDSYTNYSPSFQGQVTISADKSISTAYLQWSSLKASDTAMYYCARDYWYKPLFDIWGQGTLVTVSS
VL: not shown
notes: IgG1-TM; descriptive name; also called heavy chain peptide antibody fusion of PC9#7
B12 was tested, and the “IC50 (read off the curve)” value [10] was ~100 pM.

B13: PC9#6 GLP-1 analogue light chain fusion (antibody, IgG1)
VH: QVQLVQSGAEVKKPGSSVKVSCKASGGTFNSHAISWVRQAPGQGLEWMGGINPILGIANYAQKFQGRVTITADESTSTAYMELSSLRSEDTAVYYCARHYEIQIGRYGMNVYYLMYRFASWGQGTLVTVSS
VL: HGEGTFTSDVSSYLEEQAAKEFIAWLVKGGGGGGGSGGGGSGGGGSADIQMTQSPSSLSASVGDRVTITCRASQGIRSALNWYQQKPGKAPKLLIYNGSTLQSGVPSRFSGSGSGTDFTLTISSLQPEDFAVYYCQQFDGDPTFGQGTKVEIK
notes: IgG1-TM; descriptive name; also called light chain peptide antibody fusion of PC9#6
B13: binds [11].

B14: PC9#7 GLP-1 analogue light chain fusion (antibody)
VH: QVQLVQSGAEVKKPGESLKISCKGSGYSFTNYWISWVRQMPGKGLEWMGIIYPGDSYTNYSPSFQGQVTISADKSISTAYLQWSSLKASDTAMYYCARDYWYKPLFDIWGQGTLVTVSS
VL: HGEGTFTSDVSSYLEEQAAKEFIAWLVKGGGGGGGSGGGGSGGGGSADIVMTQSPDSLAVSLGERATINCRSSQSVLYSSNNKNYLAWYQQKPGQPPKLLIYWASTRESGVPDRFSGSGSGTDFTLTISSLQAEDVAVYYCQQYSSFPITFGQGTKVEIK
With B14 the “IC50 (read off the curve)” value [12] was ~1 nM.

B15: PC9#3 GLP-1 analogue light chain fusion (antibody, IgG1)
VH: EVQLVESGGGLVQPGGSLRLSCAASGFTFNNYAMNWVRQAPGKGLDWVSTISGSGGTTNYADSVKGRFIISRDSSKHTLYLQMNSLRAEDTAVYYCAKDSNWGNFDLWGRGTLVTVSS
VL: HGEGTFTSDVSSYLEEQAAKEFIAWLVKGGGGGGGSGGGGSGGGGSADIVMTQSPDSLAVSLGERATINCKSSQSVLYRSNNRNFLGWYQQKPGQPPNLLIYWASTRESGVPDRFSGSGSGTDFTLTISSLQAEDVAVYYCQQYYTTPYTFGQGTKLEIK
notes: IgG1-TM; descriptive name; also called light chain peptide antibody fusion of PC9#3
In the case of B15, the “IC50 (read off the curve)” value [13] is reported as ~400 pM.

B16: PC9#3_DSB7_V19A (antibody, IgG1)
VH: EVQLVESGGGLVQPGGSLRLSCAASGFTFNNYAMNWVRQAPGKGLDWVSTISGSGGTTNYADSVKGRFIISRDSSKHTLYLQMNSLRAEDTAVYYCAKDSNWGNFDLWGRGTLVTVSS
VL: HGEGTFTSDLSKQMEEECARLFIEWLKNGGPSSGAPPPGCGGGGGSGGGGSGGGGSADIVMTQSPDSLAVSLGERATINCKSSQSVLYRSNNRNFLGWYQQKPGQPPNLLIYWASTRESGVPDRFSGSGSGTDFTLTISSLQAEDVAVYYCQQYYTTPYTFGQGTKLEIK
notes: IgG1-TM
B16: binds [7].

Reference: patent publication US20160369010A1 (AstraZeneca / MedImmune, published 2016)
